In the supplement of paper PMC11780869:

Test system: Bacillus subtilis
Test: cleaved RNA product abundance (RNA/gDNA barcode ratio) relative to median wild-type variant (ratio to wild type); higher = more accumulation of the downstream cleavage product
Details: cleavage site: cggR-gapA (positions -7 to +36 mutated)
Outline: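 Oligos with a 9% error rate were used to build barcoded, mutagenized RNase Y cleavage-site windows within truncated aprE or tetM reporter mRNAs, which were integrated into the B. subtilis chromosome. Cultures were grown in LB at 37°C between OD600 0.0003 and 0.3. Cleaved RNA was gel-selected, reverse transcribed and barcode-sequenced, as were genomic DNA barcodes, and UMIs were collapsed. Cleaved product abundance is the scaled RNA:gDNA barcode ratio, with the median construct carrying the unmutated site as reference.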

[1] = experiment (reporter, strain, medium): exp 4a: truncated aprE reporter, strain BJT201 with 2% xylose (RNase J1 expressed)
[2] = experiment (reporter, strain, medium): exp 2b: truncated aprE reporter, strain BJT200
[3] = experiment (reporter, strain, medium): exp 6: tetM reporter, strain 168

## ACAGACGAAGGAGCCGCAAAGAAGTTATTAAGGGATGAACAATCCCACAATATAAATATCTCTCACTTATTTAAA
[1]
  cleaved RNA product abundance: 0.364

## ACAGACGAAGGAGCCGCAAAGAAGTTATTAAGGGATGAACAATCCCTAAATATAAATATCTCTCACTTATTTAAA
[2]
  cleaved RNA product abundance: 0.33
[1]
  cleaved RNA product abundance: 0.62

## ACAGACGAAGGAGCCGCAAAGAAGTTATTAAGGGATGAACAATCCCTCAACATAAATATCTCTCACTTATTTAAA
[1]
  cleaved RNA product abundance: 0.265

## ACAGACGAAGGAGCCGCAAAGAAGTTATTAAGGGATGAACAATCCCTCAATAAAAATATCTCTCACTTATTTAAA
[1]
  cleaved RNA product abundance: 0.151

## ACAGACGAAGGAGCCGCAAAGAAGTTATTAAGGGATGAACAATCCCTCAATATAAATATCTCTCACTTATTTAAA
[2]
  cleaved RNA product abundance: 0.842
[1]
  cleaved RNA product abundance: 0.864
[3]
  cleaved RNA product abundance: 0.875

## ACAGACGAAGGAGCCGCAAAGAAGTTATTAAGGGATGAACAATCCCTCAATATATATATCTCTCACTTATTTAAA
[1]
  cleaved RNA product abundance: 0.441

## ACAGACGAAGGAGCCGCAAAGAAGTTATTAAGGGATGAACAATCCCTCAATATTAATATCTCTCACTTATTTAAA
[1]
  cleaved RNA product abundance: 0.189

## ACAGACGAAGGAGCCGCAAAGAAGTTATTAAGGGATGAACAATCCCTCACTATAAATATCTCTCACTTATTTAAA
[1]
  cleaved RNA product abundance: 0.331

## ACAGACGAAGGAGCCGCAAAGAAGTTATTAAGGGATGAACAATCCCTCATTATAAATATCTCTCACTTATTTAAA
[2]
  cleaved RNA product abundance: 0.22
[1]
  cleaved RNA product abundance: 0.321

## ACAGACGAAGGAGCCGCAAAGAAGTTATTAAGGGATGAACAATCCCTCGATATAAATATCTCTCACTTATTTAAA
[1]
  cleaved RNA product abundance: 0.554

## ACAGACGAAGGAGCCGCAAAGAAGTTATTAAGGGATGAACAATCCGTCAATATAAATATCTCTCACTTATTTAAA
[1]
  cleaved RNA product abundance: 0.109

## ACAGACGAAGGAGCCGCAAAGAAGTTATTAAGGGATGAACAATCCTTCAATATAAATATCTCTCACTTATTTAAA
[1]
  cleaved RNA product abundance: 0.58

## ACAGACGAAGGAGCCGCAAAGAAGTTATTAAGGGATGAACAATCGCTCAATATAAATATCTCTCACTTATTTAAA
[1]
  cleaved RNA product abundance: 0.104

## ACAGACGAAGGAGCCGCAAAGAAGTTATTAAGGGATGAACAATGCCTCAATATAAATATCTCTCACTTATTTAAA
[1]
  cleaved RNA product abundance: 0.136

## ACAGACGAAGGAGCCGCAAAGAAGTTATTAAGGGATGAACAATTCCTCAATATAAATATCTCTCACTTATTTAAA
[1]
  cleaved RNA product abundance: 0.44

## ACAGACGAAGGAGCCGCAAAGAAGTTATTAAGGGATGAACATTCCCTCAATATAAATATCTCTCACTTATTTAAA
[1]
  cleaved RNA product abundance: 0.633

## ACAGACGAAGGAGCCGCAAAGAAGTTATTAAGGGATGAACTATCCCTCAATATAAATATCTCTCACTTATTTAAA
[1]
  cleaved RNA product abundance: 0.794

## ACAGACGAAGGAGCCGCAAAGAAGTTATTAAGGGATGAAGAAGCCCTCAATATAAATATCTCTCACTTATTTAAA
[1]
  cleaved RNA product abundance: 0.549

## ACAGACGAAGGAGCCGCAAAGAAGTTATTAAGGGATGAAGAATACCTCAATATAAATATCTCTCACTTATTTAAA
[1]
  cleaved RNA product abundance: 0.106

## ACAGACGAAGGAGCCGCAAAGAAGTTATTAAGGGATGAAGAATCCATCAATATAAATATCTCTCACTTATTTAAA
[2]
  cleaved RNA product abundance: 0.124

## ACAGACGAAGGAGCCGCAAAGAAGTTATTAAGGGATGAAGAATCCCCCAATATAAATATCTCTCACTTATTTAAA
[1]
  cleaved RNA product abundance: 0.183

## ACAGACGAAGGAGCCGCAAAGAAGTTATTAAGGGATGAAGAATCCCTAAATATAAATATCTCTCACTTATTTAAA
[1]
  cleaved RNA product abundance: 0.44

## ACAGACGAAGGAGCCGCAAAGAAGTTATTAAGGGATGAAGAATCCCTCAATATAAATATCTCTCACTTATTTAAA
[2]
  cleaved RNA product abundance: 0.653
[1]
  cleaved RNA product abundance: 0.658
[3]
  cleaved RNA product abundance: 0.732

## ACAGACGAAGGAGCCGCAAAGAAGTTATTAAGGGATGAAGAATCCCTCAATATCAATATCTCTCACTTATTTAAA
[1]
  cleaved RNA product abundance: 0.0586

## ACAGACGAAGGAGCCGCAAAGAAGTTATTAAGGGATGAAGAATCCCTCCATATAAATATCTCTCACTTATTTAAA
[1]
  cleaved RNA product abundance: 0.273

## ACAGACGAAGGAGCCGCAAAGAAGTTATTAAGGGATGAAGAATCCTTCAATATAAATATCTCTCACTTATTTAAA
[2]
  cleaved RNA product abundance: 0.265
[1]
  cleaved RNA product abundance: 0.405
